# B1: Flavin-containing monooxygenase from Pseudomonas stutzeri NF13 (PSFMO), as used in size-exclusion studies (enzyme, UniProt M2V3J0 1-358, looked up)
# chain: MPPILDVIVIGGGQAALTTAYFLRRTSLSYLLLDEQPGPGGAWLHAWDSLRLFSPAAWSSIAGWPMPSPTEPGNPTRNDVIDYLRRYEDRYQFPIQRPVRVDTVTRLDDLWRVQAGDQQWLARAVISATGTWSKPFIPPYEGRELFQGAQIHSAHYRTPAPFAGKRVMVVGGGNSGAQVLAELSSVSETLWITQEPPAFLPDEVDGRVLFERATARWKAQQEGRSIDEPAGGFGDIVMVPPVREARERGVLVAERPFARFTETGVEWADGRRENLDAVIWCSGFRPALDHLRELGVVEADGKVQVEDTRVVKQPNLWLVGYGDWTGMASATLIGVTRTARSTADQVVQALTATPSRRP
# notes: PSFMO, putative FMO from Pseudomonas stutzeri NF13, Uniprot M2V3J0, 358 amino acids; synthetic gene amplified with primers from the ATG start codon to the stop codon; Same construct as m2
# B2: CFMO (Cellvibrio sp. BR) (protein)
# chain: MDTPVMDSTDTDSTDIVIIGGGQAALSVAYYLRRSKYSFVMLDAEQTPGGAWLHGWDSLRLFSPSTWSSLSGWQMPPTGETYPSRDQVVDYLRHYESRYEFPVQRPVWVSAVNNLGDRLEVVSERQQWRARVVISATGTWRNPFIPAYPGADLFQGAQLHSAHYQSPAPFAGQKVLVVGGGNSGAQILAEVSRVADCTWVTTSEPIFLPDDVDGRVLFQRATDRWKAAQEGREIEQPVGGLGDVVMVPPVKEARERGALHAVRPFTRFTANGVVWADGTGSAVDAVIWCTGFRPALAHLQSLGVINPDGKVDLAGTRSLQEPRLWLLGYGEWTGLASATLIGVGRSARATAEEIIQYLDSA
# notes: 361 aa; codon-optimised gene in pET-YSBL-LIC-3C, N-terminal 3C-cleavable His6 tag (crystals: non-cleaved protein), E. coli BL21(DE3); dimer
# Columns and labels:
# PSFMO = target: T1, PSFMO (Stutzerimonas stutzeri, UniProt M2V3J0); assay: X-ray crystal structure, […] Å; assay type: binding; conditions: oxidised FAD; co-purified; tag-cleaved protein
# T1 construct: gene B381_09411; 358 aa; codon-optimised gene in pET-YSBL-LIC-3C, N-terminal 3C-cleavable His6 tag (crystals: tag cleaved, linker Gly-2 Pro-1 Ala0 seen), E. coli BL21(DE3)
# T1 sequence (M2V3J0 1-358): B1 chain
# CFMO = target: T2, CFMO (Cellvibrio sp. BR, UniProt I3IEE4); assay: X-ray crystal structure, […] Å; assay type: binding; conditions: oxidised FAD at domain interface; co-purified; non-cleaved His-tagged protein
# T2 construct: gene O59_000450; 361 aa; codon-optimised gene in pET-YSBL-LIC-3C, N-terminal 3C-cleavable His6 tag (crystals: non-cleaved protein), E. coli BL21(DE3); dimer
# T2 sequence (I3IEE4 1-361): B2 chain
# purified protein [1] = substrate: NC(=O)C1=CN([C@@H]2O[C@H](COP(=O)(O)OP(=O)(O)OC[C@H]3O[C@@H](n4cnc5c(N)ncnc54)[C@H](O)[C@@H]3O)[C@@H](O)[C@H]2O)C=CC1; assay: purified protein; assay type: biochemical, Stutzerimonas stutzeri; conditions: Tris-HCl pH 7.5, 3.9 nmol enzyme in 1 mL, NADH 10-100 μM
# purified protein [2] = substrate: NC(=O)C1=CN([C@@H]2O[C@H](COP(=O)(O)OP(=O)(O)OC[C@H]3O[C@@H](n4cnc5c(N)ncnc54)[C@H](OP(=O)(O)O)[C@@H]3O)[C@@H](O)[C@H]2O)C=CC1; assay: purified protein; assay type: biochemical, Stutzerimonas stutzeri; conditions: Tris-HCl pH 7.5, 3.9 nmol enzyme in 1 mL, NADPH 10-100 μM
# [3] = target: the molecule itself; assay: SEC; size-exclusion studies of PSFMO (not shown)
# purified protein [4] = substrate: NC(=O)C1=CN([C@@H]2O[C@H](COP(=O)(O)OP(=O)(O)OC[C@H]3O[C@@H](n4cnc5c(N)ncnc54)[C@H](O)[C@@H]3O)[C@@H](O)[C@H]2O)C=CC1; assay: purified protein; assay type: biochemical, Cellvibrio sp. BR; conditions: Tris-HCl pH 7.5, 3.9 nmol enzyme in 1 mL, NADH 10-100 μM
# purified protein [5] = substrate: NC(=O)C1=CN([C@@H]2O[C@H](COP(=O)(O)OP(=O)(O)OC[C@H]3O[C@@H](n4cnc5c(N)ncnc54)[C@H](OP(=O)(O)O)[C@@H]3O)[C@@H](O)[C@H]2O)C=CC1; assay: purified protein; assay type: biochemical, Cellvibrio sp. BR; conditions: Tris-HCl pH 7.5, 3.9 nmol enzyme in 1 mL, NADPH 10-100 μM
molecule,measurement,setting,value
Cc1cc2nc3c(=O)[nH]c(=O)nc-3n(C[C@H](O)[C@H](O)[C@H](O)COP(=O)(O)OP(=O)(O)OC[C@H]3O[C@@H](n4cnc5c(N)ncnc54)[C@H](O)[C@@H]3O)c2cc1C [FAD],"X-ray crystal structure, 1.83 Å",PSFMO,FAD was again clearly visible in the omit map after building and refinement
same,"X-ray crystal structure, 2.39 Å",CFMO,"This was successfully modelled and refined as FAD in the flat, oxidised form"
B1,Km,purified protein [1],16 ± 2 µM
same,kcat,purified protein [1],0.03 s⁻¹
same,kcat/Km,purified protein [1],1880 M⁻¹ s⁻¹
same,Km,purified protein [2],17 ± 2.0 µM
same,kcat,purified protein [2],0.04 s⁻¹
same,kcat/Km,purified protein [2],2350 M⁻¹ s⁻¹
same,stoichiometry N,[3],2
B2,Km,purified protein [4],3 ± 1 µM
same,kcat,purified protein [4],0.02 s⁻¹
same,kcat/Km,purified protein [4],6670 M⁻¹ s⁻¹
same,Km,purified protein [5],5 ± 1 µM
same,kcat,purified protein [5],0.02 s⁻¹
same,kcat/Km,purified protein [5],4000 M⁻¹ s⁻¹

# — PMC4220118, “Exploring nicotinamide cofactor promiscuity in NAD(P)H-dependent flavin containing monooxygenases (FMOs) using natural variation within the phosphate binding loop. Structure and activity of FMOs from Cellvibrio sp. BR and Pseudomonas stutzeri NF13” (Journal of Molecular Catalysis. B, Enzymatic, 2014)
